Laboratory results as given in patent publication US20070161078A1.

Assays:
[1] = molecular target: MBP.NS1 H5N1B (ESEV) (influenza A H5N1) (UniProt Q6DP28); assay: G assay titration
[2] = molecular target: MBP.NS1 H5N1B (ESEV) (influenza A H5N1) (UniProt Q6DP28); assay: direct binding assay titration

| Substance | EC50 [1] | EC50 [2] |
| --- | --- | --- |
| INADL d8 (from UniProt Q8NI35 1431-1525) | 1.8 µg/mL | 6.1 µg/mL |
| MAST2 d1 (from UniProt Q6P0Q8 1098-1197) | 0.9 µg/mL | – |
| Magi3 d1 (from UniProt Q5TCQ9 18-106) | 0.9 µg/mL | 5 µg/mL |
| NeDLG d1,2 (from UniProt Q92796 124-316) | 0.2 µg/mL | 0.8 µg/mL |
